From the supplement of paper PMC10724198
± gives the standard deviation of the averaged measurements.

System: Saccharomyces cerevisiae
Assay: protein stability index of tFT-peptide fusion (C-terminal peptide) (PSI (0-1 scale)); higher = more stable (slower turnover)
Details: genetic background: wild type; temperature: 30 C
Protocol: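 Multiplexed protein stability (MPS) profiling in S. cerevisiae. Random 12-aa peptides (tFT-X12 library) are fused to the C-terminus of a sfGFP-mCherry tandem fluorescent timer, after mCherry and a GGGS linker. Cells are FACS-sorted into 8 mCherry/sfGFP bins and deep-sequenced. The protein stability index (PSI) is the read-weighted bin average, scaled from 0 (unstable) to 1 (stable). Only peptides with >10 reads are reported; cells were grown at 30 °C in SC-His with glucose.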
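Note: PSI is a weighted mean of sequencing reads over stability bins, variants kept only with over 10 reads, mCherry proximal and sfGFP distal, peptide attached via GGGS linker.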

Row | Sequence | protein stability index
1 | GPLPPLHPSPTI | 0.725 ± 0.016
2 | PFGRETCLTSVP | 0.648 ± 0.03
3 | LVFCPCQSVVSL | 0.59 ± 0.043
4 | LPRPPPLAGPPL | 0.734 ± 0.013
5 | PPPRPCRAPAAA | 0.668 ± 0.089
6 | PESPGSPEIRHR | 0.75 ± 0.053
7 | CTKKNGYNGKNT | 0.652 ± 0.025
8 | FILCFPSLLSSL | 0.603 ± 0.022
9 | HPPRPPPRSPPP | 0.656 ± 0.1
10 | TERPMAVESRAW | 0.686 ± 0.012
11 | VVISRTPAALES | 0.697 ± 0.013
12 | PSPSYAPARHQA | 0.651 ± 0.063
13 | PGPCLLFPPFPP | 0.643 ± 0.012
14 | RIPTALLAPYAQ | 0.649 ± 0.03
15 | VWAWGDGGGAVV | 0.728 ± 0.051
16 | NVVFGCFFPVLT | 0.684 ± 0.04
17 | AWGLDGCQLCFS | 0.751 ± 0.11
18 | AMGSDRPPQSGY | 0.695 ± 0.012
19 | LSTPPRLPQPSP | 0.703 ± 0.051
20 | AVSPISLSDNIG | 0.664 ± 0.018
21 | RSSRGGFAFVYR | 0.676 ± 0.03
22 | PPLPLPPLALTR | 0.722 ± 0.037
23 | LPTHYHQSHTEP | 0.681 ± 0.052
24 | RPPVPSLLPEPT | 0.6313 ± 0.0043
25 | AGAGRLRGGGVN | 0.6767 ± 0.0017

Row | Sequence | protein stability index
26 | LFDLVVDSYGHI | 0.753 ± 0.034
27 | EGSEAYQWETLG | 0.681 ± 0.038
28 | IRDLFHHFFLSV | 0.654 ± 0.038
29 | LVRCGLGASVVV | 0.651 ± 0.041
30 | WAAWGGGEAWGV | 0.698 ± 0.047
31 | VEYVRSGTLVSG | 0.658 ± 0.06
32 | APARASPPPPPP | 0.633 ± 0.012
33 | FLLRFSPASRAV | 0.691 ± 0.019
34 | YLQLALFHSIPH | 0.738 ± 0.053
35 | SSSDPYLLFCHS | 0.741 ± 0.37
36 | NGGGMPDRVVSI | 0.722 ± 0.024
37 | HFSTSFYSSAFR | 0.631 ± 0.026
38 | GMQPRGVRRATS | 0.728 ± 0.023
39 | HHPTTQRLSVIH | 0.742 ± 0.042
40 | PHVCPVLSAAGR | 0.629 ± 0.044
41 | RVCVERFDSLTL | 0.733 ± 0.08
42 | KINRTKTAPITR | 0.724 ± 0.044
43 | TMQDSNKSQGCA | 0.706 ± 0.019
44 | GETGRGRRPRSQ | 0.667 ± 0.062
45 | MRIKSMLHHSKV | 0.66213 ± 0.00021
46 | KKKRDKKGKKKQ | 0.697 ± 0.012
47 | EKGRGGIGSRGK | 0.768 ± 0.064
48 | HSTEKGIMLNEY | 0.704 ± 0.19
49 | CFPALSSRTFPS | 0.7521 ± 0.0047
50 | GPCFKSQPKSPI | 0.6807 ± 0.0024

Row | Sequence | protein stability index
51 | GPVTSFAPVAVS | 0.617 ± 0.038
52 | GGVRVPRVDVVG | 0.618 ± 0.042
53 | GGVGLVGEVCPI | 0.688 ± 0.028
54 | HWLGCDESRGWV | 0.668 ± 0.037
55 | KKKKKRGKTKKK | 0.734 ± 0.055
56 | SEKGPRRSRVWD | 0.745 ± 0.046
57 | PLLPRLPPLSPP | 0.691 ± 0.07
58 | SGIKGENKIKEK | 0.681 ± 0.0097
59 | SGVDVPCSCHYL | 0.732 ± 0.013
60 | GVSAGLRGGGGA | 0.651 ± 0.022
61 | LNYRVLTKVDER | 0.717 ± 0.048
62 | PARRPPPTPSSS | 0.631 ± 0.064
63 | PPLLRAPLLPPC | 0.708 ± 0.021
64 | GWGPWGRVGRGG | 0.688 ± 0.032
65 | GVRHPRLMFSRS | 0.687 ± 0.02
66 | FLLVSLKQCHGR | 0.73 ± 0.036
67 | FYRPGNVLDGVF | 0.705 ± 0.075
68 | WCGLRVGGGGMW | 0.74 ± 0.017
69 | PPPPQPTAPPNP | 0.717 ± 0.049
70 | FMLRTCFLTTSK | 0.718 ± 0.027
71 | CGRERIEGGGGD | 0.643 ± 0.1
72 | VGCSVGHFQRLF | 0.677 ± 0.017
73 | KIRRKIRIYKRK | 0.629 ± 0.1
74 | ELIDGKLLRHRQ | 0.733 ± 0.061
75 | YSRSSFSIPPPF | 0.7239 ± 0.003

Row | Sequence | protein stability index
76 | LSPALPPPMSAA | 0.577 ± 0.026
77 | PLPSCTLCRPAL | 0.695 ± 0.03
78 | GLCCFWSYRASR | 0.687 ± 0.035
79 | PSPHTPPHTFLL | 0.755 ± 0.0022
80 | VPAGDPPGAWKA | 0.746 ± 0.025
81 | LSSFIHCLYSHC | 0.606 ± 0.035
82 | FRASLFFVWLPS | 0.59 ± 0.085
83 | RTGKVKNINISI | 0.71064 ± 0.00038
84 | PPPGPLFPSFPL | 0.663 ± 0.051
85 | KNTRLKKEKVSR | 0.829 ± 0.23
86 | PPAPSPPQPSPL | 0.686 ± 0.0088
87 | EVERKNKESGKI | 0.717 ± 0.011
88 | FLMDSQGPWICR | 0.726 ± 0.076
89 | WLCLARGRLGLH | 0.583 ± 0.011
90 | LPPHRPPAPDLS | 0.674 ± 0.049
91 | NLSLYFGGVLVL | 0.603 ± 0.027
92 | VDHIKAHSDSEE | 0.756 ± 0.1
93 | WGSISVEGRVAG | 0.715 ± 0.015
94 | RLTALVYFISPL | 0.597 ± 0.017
95 | VSCGRVGVARLG | 0.641 ± 0.016
96 | TFDNEYKRSRKV | 0.678 ± 0.033
97 | PSTDARRQRLRR | 0.721 ± 0.049
98 | SSFLFVPHHYPS | 0.706 ± 0.044
99 | VSRRSGVGICHL | 0.609 ± 0.13
100 | PTPTNLLPPRKY | 0.6504 ± 0.0044

Row | Sequence | protein stability index
101 | KSKKQYTKKTRK | 0.709 ± 0.0078
102 | SPPPPPPHPSHP | 0.692 ± 0.027
103 | CVMDKEYGYAIK | 0.729 ± 0.0094
104 | SIFPLSLLLPLP | 0.758 ± 0.05
105 | APLFPLTPLAPP | 0.733 ± 0.017
106 | SLFRYPLALPFP | 0.711 ± 0.012
107 | GGGGGGGCGGDR | 0.654 ± 0.08
108 | YGRANATHLGRR | 0.661 ± 0.005
109 | GESRVGMRRGGR | 0.667 ± 0.029
110 | GVPFSLGPPPSR | 0.669 ± 0.022
111 | IPPCRSFSYIAT | 0.68 ± 0.048
112 | CVSALVADDLVS | 0.674 ± 0.029
113 | RALLSPFYRFYV | 0.5956 ± 0.003
114 | ILLFISGPPMSF | 0.735 ± 0.062
115 | VKASPSDGGIVP | 0.725 ± 0.035
116 | RIKKKKKIKRNN | 0.7 ± 0.02
117 | GVGGGVRLVVSR | 0.633 ± 0.052
118 | LRSGFVVTLSLS | 0.621 ± 0.037
119 | CLTGSVLVICGN | 0.551 ± 0.06
120 | ERRQADRHRTTP | 0.766 ± 0.05
121 | PLPPPPPPIPLT | 0.702 ± 0.14
122 | GRVRETRCISYG | 0.652 ± 0.11
123 | PSSHHGNQTTRK | 0.826 ± 0.14
124 | LTLPPLPPPSLP | 0.707 ± 0.0081
125 | LFLRPSGLPTLL | 0.69 ± 0.083

Row | Sequence | protein stability index
126 | EITKVKDNEKIN | 0.686 ± 0.12
127 | LVSPLARLGLMI | 0.787 ± 0.05
128 | HSSRSPPPSPYA | 0.709 ± 0.042
129 | EGEGAGRWCGRG | 0.66 ± 0.051
130 | GDIGAGMGVVGE | 0.641 ± 0.0049
131 | HRSHVRHSFPNP | 0.703 ± 0.038
132 | QEESRARKGTQT | 0.627 ± 0.034
133 | VSNTSAWLLWIS | 0.629 ± 0.032
134 | VVCVGAEVGEGG | 0.7197 ± 0.0067
135 | PRHISIHPNATP | 0.705 ± 0.045
136 | RGRTLVVPAPDT | 0.673 ± 0.017
137 | KPLDPNRHVIPG | 0.652 ± 0.021
138 | EKSGKDKRKNEI | 0.723 ± 0.062
139 | GANKQHLARKTE | 0.7254 ± 0.0069
140 | PSVLPPPSPASY | 0.668 ± 0.094
141 | VYPRNLPGSVPL | 0.666 ± 0.02
142 | IVRTKLHPIGTS | 0.655 ± 0.043
143 | KRKKNISKTEKS | 0.724 ± 0.016
144 | RRPCTSSHAKAP | 0.692 ± 0.021
145 | PPHPPYPPQPSL | 0.7021 ± 0.005
146 | GKLKVKIYESSK | 0.658 ± 0.061
147 | VMKAVNKTKRNV | 0.664 ± 0.041
148 | TYLGISNLHPAI | 0.709 ± 0.031
149 | PPPPPPTPPSLS | 0.7449 ± 0.001
150 | SDPGRLVLKIRR | 0.715 ± 0.014

Row | Sequence | protein stability index
151 | EGGTGCLAMSVG | 0.7 ± 0.012
152 | PVWLLASSLADL | 0.722 ± 0.039
153 | LAPPPPVPPTHS | 0.721 ± 0.052
154 | AHLGRDVGRGTW | 0.729 ± 0.062
155 | TVVYPFHSGGFA | 0.694 ± 0.024
156 | PPLPPLSPAPPR | 0.681 ± 0.0073
157 | GGGGGGACRPVG | 0.659 ± 0.094
158 | RPSTHPPATPPR | 0.695 ± 0.07
159 | GHSNRDCFGIKC | 0.621 ± 0.024
160 | SCGKGVGRWRLG | 0.6721 ± 0.0029
161 | SICRERRLSFYL | 0.728 ± 0.052
162 | HLWAPRQNTIRY | 0.649 ± 0.091
163 | SLLAPPALTAPS | 0.674 ± 0.05
164 | ADPWSFKIVKEL | 0.542 ± 0.028
165 | KREKAQEGQGGD | 0.709 ± 0.025
166 | MKLWSDALNVVR | 0.607 ± 0.12
167 | PALPPPPSPPLL | 0.754 ± 0.052
168 | AVTAFDMGGSRN | 0.672 ± 0.12
169 | AISPHPPPALTP | 0.6872 ± 0.0027
170 | RHDSYKSLHSNL | 0.743 ± 0.05
171 | AAPEGLRRDRGA | 0.571
172 | GGTVAGLYILGF | 0.6301 ± 0.001
173 | TPPPPLVPPLPP | 0.578 ± 0.017
174 | VFFSCVRFCLWF | 0.562 ± 0.0082
175 | VQRKVCTFRRSD | 0.665 ± 0.14

Row | Sequence | protein stability index
176 | NLRFLFFSSSRF | 0.682 ± 0.017
177 | LFRLFFVKACRF | 0.516 ± 0.0025
178 | VVHGIGLIYTGG | 0.68 ± 0.041
179 | AQTTRGGRRGDE | 0.657 ± 0.034
180 | KVWGPAVPAVPP | 0.666 ± 0.065
181 | GRRDGRWGQIVR | 0.679 ± 0.0097
182 | NIHRKLIKNERV | 0.694 ± 0.046
183 | CQVTDYLVLDWG | 0.727 ± 0.038
184 | PPRPLLPTPSPL | 0.7 ± 0.056
185 | MDGRVMAETCRA | 0.585 ± 0.038
186 | VGADVLAYRGVA | 0.604 ± 0.025
187 | SGGGAGKRVCEG | 0.704 ± 0.015
188 | GCRRYLFLFFGC | 0.6 ± 0.047
189 | PHPLPLPLPLSP | 0.7134 ± 0.0017
190 | RSHPTPQAHPSA | 0.728 ± 0.051
191 | KRMPDERAKAGP | 0.694 ± 0.0079
192 | MSWSVSDIADDS | 0.657 ± 0.0075
193 | SWVVSLGFAIGL | 0.693 ± 0.055
194 | PRSRPTCYSRPG | 0.702 ± 0.04
195 | HSCYGHIRVSFC | 0.705 ± 0.0098
196 | SQQFGSILPGEL | 0.694 ± 0.018
